The record followed here is the RNAGym collection of RNA variant scans (doi:10.1093/molbev/msab373).

Sequences and labels used below:
B1: Azoarcus group I ribozyme (parent)
chain: GUGCCUUGCGCCGGGAAACCACGCAAGGGAUGGUGUCAAAUUCGGCGAAACCUAAGCGCCCGCCCGGGCGUAUGGCAACGCCGAGCCAAGCUUCGGCGCCUGCGCCGAUGAAGGUGUAGAGACUAGACGGCACCCACCUAAGGCAAACGCUAUGGUGAAGGCAUAGUCCAGGGAGUGGCGAAAGUCACACAAACCGG

The variants in this data set derive from B1. Put plainly: reverse-splicing fitness (ratio to wild type); higher = more active; in vitro selection; Mg2+ level not given. The procedure, abridged:
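An in vitro group I ribozyme library with randomized positions was T7-transcribed and gel-purified. In triplicate, 10 pmol RNA in EPPS pH 7.5 was reacted with 50 pmoles of a 30-nt RNA substrate for 1 h at 37 °C across several added MgCl2 levels (1–48 mM), then stopped with EDTA. Products were reverse transcribed from a substrate-complementary primer, PCR-amplified and sequenced (HiSeq 4000). Fitness is a variant's read proportion after selection over that before, normalised to wild type.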
As for GUGCCUUGCGCCGGGAAACCACGCAAGGGAUGGUGUCAAAUUCGGCGAAACCUAAGCGCCCGCCCGGGCGUAUGGCAACGCUGAGCCAAGCUUCGGCGCCUGCGCCGAUGUAGGUGUAGUGACUAGACGGCACCCACCUAAGGCCAACGAUAUGGUGAAGGCAUAGUCAAGGGAGCGGCGAAAGUCACACAAACCGG, the reverse-splicing fitness came to 0.00217. On to GUGCCUUGCGCCGGGAAACCACGCAAGGGAUGGUGUCAAAUUCGGCGAAACCUAAGCGCCCGCCCGGGCGUAUGGCAACGCUGAGCCAAGCUUCGGCGCCUGCGCCGAUGUAGGUGUAGUGACUAGACGGCACCCACCUAAGGCCAACGAUAUGGUGAAGGCAUAGUCAAGGGAGGGGCGAAAGUCACACAAACCGG, for which the reverse-splicing fitness was determined as 0.00264.

Turning to GUGCCUUGCGCCGGGAAACCACGCAAGGGAUGGUGUCAAAUUCGGCGAAACCUAAGCGCCCGCCCGGGCGUAUGGCAACGCUGAGCCAAGCUUCGGCGCCUGCGCCGAUGUAGGUGUAGUGACUAGACGGCACCCACCUAAGGCCAACGAUAUGGUGAAGGCAUAGUCAAGGGAGAGGCGAAAGUCACACAAACCGG, the reverse-splicing fitness was 0.00203. As for GUGCCUUGCGCCGGGAAACCACGCAAGGGAUGGUGUCAAAUUCGGCGAAACCUAAGCGCCCGCCCGGGCGUAUGGCAACGCUGAGCCAAGCUUCGGCGCCUGCGCCGAUGUAGGUGUAGUGACUAGACGGCACCCACCUAAGGCCAACGAUAUGGUGAAGGCAUAGUCGAGGGAGUGGCGAAAGUCACACAAACCGG, the reverse-splicing fitness stood at 0.00215.

As to GUGCCUUGCGCCGGGAAACCACGCAAGGGAUGGUGUCAAAUUCGGCGAAACCUAAGCGCCCGCCCGGGCGUAUGGCAACGCUGAGCCAAGCUUCGGCGCCUGCGCCGAUGUAGGUGUAGUGACUAGACGGCACCCACCUAAGGCCAACGAUAUGGUGAAGGCAUAGUCAAGGGAGUGGCGAAAGUCACACAAACCGG, the reverse-splicing fitness amounted to 0.00214.

Consider GUGCCUUGCGCCGGGAAACCACGCAAGGGAUGGUGUCAAAUUCGGCGAAACCUAAGCGCCCGCCCGGGCGUAUGGCAACGCUGAGCCAAGCUUCGGCGCCUGCGCCGAUGUAGGUGUAGUGACUAGACGGCACCCACCUAAGGCCAACGAUAUGGUGAAGGCAUAGUCUAGGGAGUGGCGAAAGUCACACAAACCGG, for which the reverse-splicing fitness was determined as 0.00254. In the case of GUGCCUUGCGCCGGGAAACCACGCAAGGGAUGGUGUCAAAUUCGGCGAAACCUAAGCGCCCGCCCGGGCGUAUGGCAACGCUGAGCCAAGCUUCGGCGCCUGCGCCGAUGUAGGUGUAGUGACUAGACGGCACCCACCUAAGGCCAACGAUAUGGUGAAGGCAUAGUCGAGGGAGCGGCGAAAGUCACACAAACCGG, the reverse-splicing fitness amounted to 0.00255. As to GUGCCUUGCGCCGGGAAACCACGCAAGGGAUGGUGUCAAAUUCGGCGAAACCUAAGCGCCCGCCCGGGCGUAUGGCAACGCUGAGCCAAGCUUCGGCGCCUGCGCCGAUGUAGGUGUAGUGACUAGACGGCACCCACCUAAGGCCAACGAUAUGGUGAAGGCAUAGUCGAGGGAGAGGCGAAAGUCACACAAACCGG, the reverse-splicing fitness amounted to 0.00269.

Turning to GUGCCUUGCGCCGGGAAACCACGCAAGGGAUGGUGUCAAAUUCGGCGAAACCUAAGCGCCCGCCCGGGCGUAUGGCAACGCUGAGCCAAGCUUCGGCGCCUGCGCCGAUGUAGGUGUAGUGACUAGACGGCACCCACCUAAGGCCAACGAUAUGGUGAAGGCAUAGUCGAGGGAGGGGCGAAAGUCACACAAACCGG, the reverse-splicing fitness was 0.00189. In the case of GUGCCUUGCGCCGGGAAACCACGCAAGGGAUGGUGUCAAAUUCGGCGAAACCUAAGCGCCCGCCCGGGCGUAUGGCAACGCUGAGCCAAGCUUCGGCGCCUGCGCCGAUGUAGGUGUAGGGACUAGACGGCACCCACCUAAGGCAAACGCUAUGGUGAAGGCAUAGUCCAGGGAGGGGCGAAAGUCACACAAACCGG, the reverse-splicing fitness was 0.00474. Take GUGCCUUGCGCCGGGAAACCACGCAAGGGAUGGUGUCAAAUUCGGCGAAACCUAAGCGCCCGCCCGGGCGUAUGGCAACGCUGAGCCAAGCUUCGGCGCCUGCGCCGAUGUAGGUGUAGUGACUAGACGGCACCCACCUAAGGCAAACGCUAUGGUGAAGGCAUAGUCCAGGGAGUGGCGAAAGUCACACAAACCGG: the reverse-splicing fitness amounted to 0.0242.

Regarding GUGCCUUGCGCCGGGAAACCACGCAAGGGAUGGUGUCAAAUUCGGCGAAACCUAAGCGCCCGCCCGGGCGUAUGGCAACGCUGAGCCAAGCUUCGGCGCCUGCGCCGAUGUAGGUGUAGUGACUAGACGGCACCCACCUAAGGCCAACGCUAUGGUGAAGGCAUAGUCCAGGGAGUGGCGAAAGUCACACAAACCGG, the reverse-splicing fitness was 0.0211. As to GUGCCUUGCGCCGGGAAACCACGCAAGGGAUGGUGUCAAAUUCGGCGAAACCUAAGCGCCCGCCCGGGCGUAUGGCAACGCUGAGCCAAGCUUCGGCGCCUGCGCCGAUGUAGGUGUAGUGACUAGACGGCACCCACCUAAGGCCAACGGUAUGGUGAAGGCAUAGUCUAGGGAGAGGCGAAAGUCACACAAACCGG, the reverse-splicing fitness is 0.00255.

On to GUGCCUUGCGCCGGGAAACCACGCAAGGGAUGGUGUCAAAUUCGGCGAAACCUAAGCGCCCGCCCGGGCGUAUGGCAACGCUGAGCCAAGCUUCGGCGCCUGCGCCGAUGUAGGUGUAGUGACUAGACGGCACCCACCUAAGGCCAACGGUAUGGUGAAGGCAUAGUCGAGGGAGAGGCGAAAGUCACACAAACCGG, for which the reverse-splicing fitness is 0.00245. Turning to GUGCCUUGCGCCGGGAAACCACGCAAGGGAUGGUGUCAAAUUCGGCGAAACCUAAGCGCCCGCCCGGGCGUAUGGCAACGCUGAGCCAAGCUUCGGCGCCUGCGCCGAUGUAGGUGUAGUGACUAGACGGCACCCACCUAAGGCCAACGGUAUGGUGAAGGCAUAGUCGAGGGAGGGGCGAAAGUCACACAAACCGG, the reverse-splicing fitness amounted to 0.00175. Take GUGCCUUGCGCCGGGAAACCACGCAAGGGAUGGUGUCAAAUUCGGCGAAACCUAAGCGCCCGCCCGGGCGUAUGGCAACGCUGAGCCAAGCUUCGGCGCCUGCGCCGAUGUAGGUGUAGUGACUAGACGGCACCCACCUAAGGCCAACGGUAUGGUGAAGGCAUAGUCGAGGGAGCGGCGAAAGUCACACAAACCGG: the reverse-splicing fitness amounted to 0.00216.

GUGCCUUGCGCCGGGAAACCACGCAAGGGAUGGUGUCAAAUUCGGCGAAACCUAAGCGCCCGCCCGGGCGUAUGGCAACGCUGAGCCAAGCUUCGGCGCCUGCGCCGAUGUAGGUGUAGUGACUAGACGGCACCCACCUAAGGCCAACGGUAUGGUGAAGGCAUAGUCAAGGGAGGGGCGAAAGUCACACAAACCGG: the reverse-splicing fitness was 0.00281. For GUGCCUUGCGCCGGGAAACCACGCAAGGGAUGGUGUCAAAUUCGGCGAAACCUAAGCGCCCGCCCGGGCGUAUGGCAACGCUGAGCCAAGCUUCGGCGCCUGCGCCGAUGUAGGUGUAGUGACUAGACGGCACCCACCUAAGGCCAACGGUAUGGUGAAGGCAUAGUCAAGGGAGAGGCGAAAGUCACACAAACCGG, the reverse-splicing fitness turned out to be 0.00264.

As to GUGCCUUGCGCCGGGAAACCACGCAAGGGAUGGUGUCAAAUUCGGCGAAACCUAAGCGCCCGCCCGGGCGUAUGGCAACGCUGAGCCAAGCUUCGGCGCCUGCGCCGAUGUAGGUGUAGUGACUAGACGGCACCCACCUAAGGCCAACGGUAUGGUGAAGGCAUAGUCAAGGGAGCGGCGAAAGUCACACAAACCGG, the reverse-splicing fitness is 0.00247. As for GUGCCUUGCGCCGGGAAACCACGCAAGGGAUGGUGUCAAAUUCGGCGAAACCUAAGCGCCCGCCCGGGCGUAUGGCAACGCUGAGCCAAGCUUCGGCGCCUGCGCCGAUGUAGGUGUAGUGACUAGACGGCACCCACCUAAGGCCAACGAUAUGGUGAAGGCAUAGUCUAGGGAGAGGCGAAAGUCACACAAACCGG, the reverse-splicing fitness was 0.0025.

For GUGCCUUGCGCCGGGAAACCACGCAAGGGAUGGUGUCAAAUUCGGCGAAACCUAAGCGCCCGCCCGGGCGUAUGGCAACGCUGAGCCAAGCUUCGGCGCCUGCGCCGAUGUAGGUGUAGUGACUAGACGGCACCCACCUAAGGCCAACGAUAUGGUGAAGGCAUAGUCUAGGGAGCGGCGAAAGUCACACAAACCGG, the reverse-splicing fitness amounted to 0.00269. For the variant GUGCCUUGCGCCGGGAAACCACGCAAGGGAUGGUGUCAAAUUCGGCGAAACCUAAGCGCCCGCCCGGGCGUAUGGCAACGCUGAGCCAAGCUUCGGCGCCUGCGCCGAUGUAGGUGUAGUGACUAGACGGCACCCACCUAAGGCCAACGAUAUGGUGAAGGCAUAGUCUAGGGAGGGGCGAAAGUCACACAAACCGG, the reverse-splicing fitness was found to be 0.00213.

For GUGCCUUGCGCCGGGAAACCACGCAAGGGAUGGUGUCAAAUUCGGCGAAACCUAAGCGCCCGCCCGGGCGUAUGGCAACGCUGAGCCAAGCUUCGGCGCCUGCGCCGAUGUAGGUGUAGUGACUAGACGGCACCCACCUAAGGCCAACGAUAUGGUGAAGGCAUAGUCCAGGGAGAGGCGAAAGUCACACAAACCGG, the reverse-splicing fitness was 0.00354. On to GUGCCUUGCGCCGGGAAACCACGCAAGGGAUGGUGUCAAAUUCGGCGAAACCUAAGCGCCCGCCCGGGCGUAUGGCAACGCUGAGCCAAGCUUCGGCGCCUGCGCCGAUGUAGGUGUAGUGACUAGACGGCACCCACCUAAGGCCAACGAUAUGGUGAAGGCAUAGUCCAGGGAGGGGCGAAAGUCACACAAACCGG, for which the reverse-splicing fitness is 0.00245. With GUGCCUUGCGCCGGGAAACCACGCAAGGGAUGGUGUCAAAUUCGGCGAAACCUAAGCGCCCGCCCGGGCGUAUGGCAACGCUGAGCCAAGCUUCGGCGCCUGCGCCGAUGUAGGUGUAGUGACUAGACGGCACCCACCUAAGGCCAACGAUAUGGUGAAGGCAUAGUCCAGGGAGCGGCGAAAGUCACACAAACCGG, the reverse-splicing fitness turned out to be 0.00387. For GUGCCUUGCGCCGGGAAACCACGCAAGGGAUGGUGUCAAAUUCGGCGAAACCUAAGCGCCCGCCCGGGCGUAUGGCAACGCUGAGCCAAGCUUCGGCGCCUGCGCCGAUGUAGGUGUAGUGACUAGACGGCACCCACCUAAGGCCAACGGUAUGGUGAAGGCAUAGUCAAGGGAGUGGCGAAAGUCACACAAACCGG, the reverse-splicing fitness was 0.00266. In the case of GUGCCUUGCGCCGGGAAACCACGCAAGGGAUGGUGUCAAAUUCGGCGAAACCUAAGCGCCCGCCCGGGCGUAUGGCAACGCUGAGCCAAGCUUCGGCGCCUGCGCCGAUGUAGGUGUAGUGACUAGACGGCACCCACCUAAGGCCAACGGUAUGGUGAAGGCAUAGUCGAGGGAGUGGCGAAAGUCACACAAACCGG, the reverse-splicing fitness turned out to be 0.00307. Turning to GUGCCUUGCGCCGGGAAACCACGCAAGGGAUGGUGUCAAAUUCGGCGAAACCUAAGCGCCCGCCCGGGCGUAUGGCAACGCUGAGCCAAGCUUCGGCGCCUGCGCCGAUGUAGGUGUAGUGACUAGACGGCACCCACCUAAGGCCAACGGUAUGGUGAAGGCAUAGUCUAGGGAGUGGCGAAAGUCACACAAACCGG, the reverse-splicing fitness was 0.00284. In the case of GUGCCUUGCGCCGGGAAACCACGCAAGGGAUGGUGUCAAAUUCGGCGAAACCUAAGCGCCCGCCCGGGCGUAUGGCAACGCUGAGCCAAGCUUCGGCGCCUGCGCCGAUGUAGGUGUAGUGACUAGACGGCACCCACCUAAGGCCAACGAUAUGGUGAAGGCAUAGUCCAGGGAGUGGCGAAAGUCACACAAACCGG, the reverse-splicing fitness was 0.00466. Turning to GUGCCUUGCGCCGGGAAACCACGCAAGGGAUGGUGUCAAAUUCGGCGAAACCUAAGCGCCCGCCCGGGCGUAUGGCAACGCUGAGCCAAGCUUCGGCGCCUGCGCCGAUGUAGGUGUAGUGACUAGACGGCACCCACCUAAGGCCAACGGUAUGGUGAAGGCAUAGUCCAGGGAGUGGCGAAAGUCACACAAACCGG, the reverse-splicing fitness came out at 0.00588.
